In PMC9995270 (Nature, 2023):

Columns and labels:
His-tagged PaMurA = biological target: T1, His-tagged PaMurA (P. aeruginosa, UniProt Q9HVW7 1-421); experiment: […] (1:1), 25 mM Tris pH 8.0, 150 mM NaCl, 10% glycerol, 1 mM DTT, […]; settings: both partners purified
T1 construct: MurA of Pseudomonas aeruginosa PAO1; UniProt Q9HVW7 is printed for the covariation analysis; also called H–PaMurA; H–PaMurA(WT); source: purified (details in the Supplementary Information)

H–PaMurA(E406K) = biological target: T2, H–PaMurA(E406K) (P. aeruginosa, UniProt Q9HVW7 1-421, E406K); experiment: as above; settings: both partners purified
T2 construct: source: purified (details in the Supplementary Information)

B1: Flag-tagged PaLpxC (enzyme)
chain: MIKQRTLKNIIRATGVGLHSGEKVYLTLKPAPVDTGIVFCRTDLDPVVEIPARAENVGETTMSTTLVKGDVKVDTVEHLLSAMAGLGIDNAYVELSASEVPIMDGSAGPFVFLIQSAGLQEQEAAKKFIRIKREVSVEEGDKRAVFVPFDGFKVSFEIDFDHPVFRGRTQQASVDFSSTSFVKEVSRARTFGFMRDIEYLRSQNLALGGSVENAIVVDENRVLNEDGLRYEDEFVKHKILDAIGDLYLLGNSLIGEFRGFKSGHALNNQLLRTLIADKDAWEVVTFEDARTAPISYMRPAAAV
notes: LpxC of Pseudomonas aeruginosa PAO1; UniProt P47205 is printed for the covariation analysis; also called F–PaLpxC; F–LpxC; source: purified (details in the Supplementary Information)
- binding result (His-tagged PaMurA): binds
- binding result (H–PaMurA(E406K)): binds
